Biological target: dansylated-FadAc (Fusobacterium nucleatum 12230) (UniProt Q5I6B0)
Experiment: other fluorescence titration

B1: GST-VE-cadherin_(415–534) (domain or fragment)
chain: KGQFFRVTKKGDIYNEKELDREVYPWYNLTVEAKELDSTGTPTGKESIVQVHIEVLDENDNAPEFAKPYQPKVCENAVHGQLVLQISAIDKDITPRNVKFKFILNTENNFTLTDNHDNTA
Kd: 15.9 µM
